The text below walks through data of patent US20220017620A1 (SHANGHAI FUDAN ZHANGJIANG BIO PHARMACEUTICAL, published 2022).

For test [1], the target named is T1, B7-H3 antigen H4M (human 4Ig B7-H3 amino acids 27-461 with N-terminal 10 His tag and C-terminal Myc tag) (human, UniProt Q5ZPR3 27-461, Biotinylated in the phage ELISA (labeling amount approximately 2.5, sites not stated); not biotinylated in the scFv protein ELISA).
T1 construct: Expressed in Expi293; also called biotinylated B7-H3 antigen H4M; not shown: any linker between the tags and the B7-H3 part is not described
T1 sequence: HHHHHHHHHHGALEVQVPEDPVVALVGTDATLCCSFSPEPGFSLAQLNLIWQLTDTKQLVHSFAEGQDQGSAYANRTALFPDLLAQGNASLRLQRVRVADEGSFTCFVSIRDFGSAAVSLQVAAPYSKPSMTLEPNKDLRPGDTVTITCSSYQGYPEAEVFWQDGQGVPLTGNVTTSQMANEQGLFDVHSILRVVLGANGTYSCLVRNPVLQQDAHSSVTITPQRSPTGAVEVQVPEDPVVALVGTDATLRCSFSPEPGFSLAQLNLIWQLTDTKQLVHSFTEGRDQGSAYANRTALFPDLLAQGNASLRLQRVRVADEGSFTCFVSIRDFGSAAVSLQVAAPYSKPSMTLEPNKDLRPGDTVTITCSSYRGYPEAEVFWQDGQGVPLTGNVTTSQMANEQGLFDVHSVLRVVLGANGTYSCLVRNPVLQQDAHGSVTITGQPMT
Put plainly: phage ELISA, scFv displayed on phage, biotinylated H4M captured on streptavidin. Here is the method:
Phage ELISA screening: streptavidin with a concentration of 1 mg/ml was taken and dissolved at room temperature, after being mixed, it was diluted gradually with coating buffer to 5 μg/ml. 100 μL/well of which was then pipetted into each well in a 96-well plate, and 100 μL coating buffer only were pipetted into another 3 wells as a blank control, incubated overnight at 2-8° C. The biotinylated B7-H3 antigen H4M was taken and diluted with 0.5% BSA-PBST diluent to […], then 100 μL of which at a concentration of 20 ng/ml was pipetted into the streptavidin-coated wells, and placed into a microplate shaker. After shaking at 37° C. and 600 rpm for 1 hour, the liquid was discarded, the plate was washed for 3 times with washing buffer and pat dry. The positive phage obtained in the second or third round of panning was taken and dissolved at room temperature, after being mixed, it was diluted 500 times with the diluent. The diluted phage was aliquoted into the microtiter plate at an amount of 100 μL/well, and placed in a microplate shaker, incubating at 37° C. and 600 rpm for 1 hour. After discarding the liquid, the plate was washed for 3 times with washing buffer. Then 100 μL of diluted HRP/Anti-M137 enzyme-linked antibody was aliquoted into each well, placed into the microplate shaker, incubating at 37° C., 600 rpm for 1 hour. After discarding the liquid, the plate was washed for 3 times. Then TMB chromogenic solution was aliquoted in at 100 μL/well and incubated for color development for 15 minutes, then 1 mol/L H₂SO₄ stop solution was aliquoted at 100 μl/well to stop the reaction. A microplate reader was used to measure the absorbance at 450 nm with a wavelength of 650 nm as the reference wavelength.
A general note: In an ELISA, binding on a coated surface is turned into a signal by an enzyme label.

Test [2] deals with T1, B7-H3 antigen H4M (human 4Ig B7-H3 …). As to the kind of experiment: scFv protein ELISA on coated H4M. Here is the method: ELISA screening of scFv protein: B7-H3 antigen H4M was taken and dissolved at room temperature, then diluted with coating buffer to 2 ng/ml, and aliquoted into a hydrophobic enzyme-labeled plate at 100 μL/well, while 100 μL coating buffer only were pipetted into another 3 wells as a blank control, incubated overnight at 2-8° C. 100 μL of scfv protein sample was pipetted into each well, then the plate was placed into the microplate shaker, incubating for 1 hour at 37° C. and 600 rpm. After discarding the liquid, the plate was washed for 3 times with washing buffer. Then diluted enzyme-linked antibody was aliquoted into each well at 100 μL/well, placed into the microplate shaker, incubating at 37° C., 600 rpm for 1 hour. After discarding the liquid, the plate was washed for 3 times. Then TMB chromogenic solution was aliquoted in at 100 μL/well and incubated for 15 minutes, then 1 mol/L H₂SO₄ stop solution was aliquoted at 100 μL/well to stop the reaction. A microplate reader was used to measure the absorbance at 450 nm with a wavelength of 650 nm as the reference wavelength.

For the next test, the target named is T2, IgV domain of B7-H3 (human, UniProt Q5ZPR3 30-130).
T2 sequence: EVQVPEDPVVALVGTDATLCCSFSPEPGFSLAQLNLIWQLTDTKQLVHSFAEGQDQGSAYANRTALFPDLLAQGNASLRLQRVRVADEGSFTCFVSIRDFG
As to the kind of experiment: ELISA on coated antigen, IgG1 antibody. Here is the method:
Protein binding: 100 μL of antigen B7-H3 (R&D) at 20 ng/ml was coated onto microplate, incubated at 2-8° C. overnight. Subsequently, 100 μL of the prepared full-length IgG1 antibody described above was added with a total of 8 concentrations started from 2000 ng/ml and serially diluted with 3-fold, incubating at 37° C., 600 rpm for 1 hour. After the plate was washed for three times, Goat anti human IgG (Fc)-HRP enzyme-linked antibody was added and the plate was shook at 37° C. and 600 rpm for 1 hour. After the plate was washed for 4 times, TMB chromogenic solution was aliquoted in and incubated for 10 minutes, then 1 mol/L […] stop solution at 100 μL/well was aliquoted to stop the reaction and the absorbance was measured.

B1: P2E3 scFv (scFv)
scFv: QVQLVQSGAEVKKPGESLKISCKGSGYSFTSYWIGWVRQMPGKGLEWMGIIYPGDSDTRYSPSFQGQVTISADKSISTAYLQWSSLKASDTAMYYCARRSREGFDPWGQGTLVTVSSGSASAPTLGQGGGGGSGGGGSGGGGSQAVLTQPSSASGTPGQRVTMSCSGAASNIGKNFVYWYQQLPGRAPRLLISRNIQRPSEVPDRFSGSKSGTSASLAISGLQSEDEADYYCAAWDDSLNGFVFGTGTAVTVL
Consider B1, for which the “ELISA signal value of Phage scFv” value in test [1] is 3.54 absorbance 450 nm. Further, the “ELISA signal value of protein scFv” value in test [2] worked out at 3.58 absorbance 450 nm.

B2: P3B9 scFv (scFv)
scFv: QIQLVQSGAEVKKPGESLKISCKGSGYSFTSYWIGWVRQMPGKGLEWMGIIYPGDSDTRYSPSFQGQVTISADKSISTAYLQWSSLKASDTAMYYCARRTPRGMDVWGQGTTVTVSSGSASAPTLGQGGGGGSGGGGSGGGGSQAVLTQPPSASGTPGQRVTISCSGSSSNIGSNYVYWYQQLPGTAPKLLIYRNNQRPSGVPDRFSGSKSGTSASLAISGLRSEDEADYYCAAWDDSLSGWVFGGGTKLTVL
Regarding B2, in test [1], the “ELISA signal value of Phage scFv” value was 3.09 absorbance 450 nm. For the same molecule, in test [2], the “ELISA signal value of protein scFv” value was 3.39 absorbance 450 nm.

B3: P9A12 full-length IgG1 antibody (antibody, V domains shown)
VH: QVTLKESGGGLVQPGGSLRLSCAASGFTFSSYAMSWVRQAPGKGLEWVSAISGSGGSTYYADSVKGRFTISRDNSKNTLYLQMNSLRAEDTAVYYCARGAGIDAFDIWGQGTMVTVSS
VL: QSALTQPASVSGSPGQSITISCTGTSSDVGAYNYVTWYQQYPGKAPKLMIYDVSERPSGVSNRFSGSKSGNTASLTISGLQAEDEADYYCSSFTSSISWVFGGGTKLTVL
Regarding B3, the ELISA signal value with IgV domain of B7-H3 was in the range of 0.3 to 0.5 elisasignalvalue.

B4: P1G2 scFv (scFv)
scFv: QVQLQQSGAEVKKPGSSVKVSCKASGGTFSSYAISWVRQAPGQGLEWMGRIIPILGIANYAQKFQGRVTITADKSTSTAYMELSSLRSEDTAVYYCAVNYYDSSGYYSDYWGQGTLVTVSSGSASAPTLGQGGGGGSGGGGSGGGGSSYELTQPPSASGSPGQSVTISCTGTSSDVGGYNYVSWYQQHPGKAPRLMIYGVSQRPSGVPDRFSGSKSGNTASLTVSGLQAEDEADYYCSSYANNNYVFGTGTKVTVL
As for B4, in test [1], the “ELISA signal value of Phage scFv” value is 3.55 absorbance 450 nm. Further, the “ELISA signal value of protein scFv” value in test [2] is 0.54 absorbance 450 nm.

B5: P7F10 full-length IgG1 antibody (antibody, V domains shown)
VH: QVQLQQSGGGLVQPGGSLRLSCAASGFTFSSYPMSWVRQAPGKGLEWVSVISGSGGSTFYADSVKGRFTISRDNSKNTLYLQVNSLRAEDTAVYYCAKDGRTLSGMDVWGQGTTVTVSS
VL: QPVLTQPPSASGTPGQRVTISCSGSSSNIGSNPVNWYQQLPGTAPKLLIYNNNQRPSGVPDRFSGSKSGTSGSLAISGLQSEDEAHYYCAAWDVSLKEVFGGGTKVTVL
For B5, in the test with IgV domain of B7-H3, the ELISA signal value was in the range of 0.6 to 1.5 elisasignalvalue.

B6: P1D1 scFv (scFv)
scFv: QVQLVQSGAEVKKPGESLKISCKGSGYSFTSYWIGWVRQMPGKGLEWMGIIYPGDSDTRYSPSFQGQVTISADKSISTAYLQWSSLKASDTAMYYCARRSVAGLDYWGQGTLVTVSSGSASAPTLGQGGGGGSGGGGSGGGGSKTVVTQPPSASGTPGQRVTISCSGSSSNIGSKYVYWYQQLPGTAPRLLIYRNNQRPSGVPDRFSGSKSGTSASLAISGLRSEDESDYYCASWDDRLKGYAFGTGTKVTVL
Consider B6, for which the “ELISA signal value of Phage scFv” value in test [1] came out at 3.65 absorbance 450 nm. Also, the “ELISA signal value of protein scFv” value in test [2] is 2.97 absorbance 450 nm.

B7: P2E5 scFv (scFv)
scFv: QVTLKESGGGLVQPGGSLRLSCAASGFTFSNSYMTWVRQAPGMGLEWVASMKPDGSVKHYVDSVKGRFTISRDNTKNSLDLQMNSLRAEDTAVYYCSSYDTRWGWFDPWGEGTLVTVSSGSASAPTLGQGGGGGSGGGGSGGGGSQTVVTQEPSFSVSPGGTVTLTCGLNSGSVSTSYFPSWYQQTPGQAPRTLIYNTNTRSSGVPDRFSGSILGNKAALTITGAQADDESDYYCLLYMDSGPHWVFGGGTKLTVL
As for B7, the “ELISA signal value of Phage scFv” value in test [1] stood at 0.74 absorbance 450 nm. For the same molecule, the “ELISA signal value of protein scFv” value in test [2] is 0.84 absorbance 450 nm.
